Test results reported in the domain aggregation screens of Martell et al. (2025).

Assay: soluble fraction after stress (log2 fold change); higher = more stays soluble; pooled small domains, quantitative proteomics
Conditions: stress: pH 4
Procedure, shortened: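 With high-throughput quantitative proteomics, pooled custom libraries of small protein domains were measured after pH 4 stress. Each domain's soluble amount after the stress gives a fold change taken as aggregation propensity. Higher log2 values mean more of the domain stayed soluble.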

Row | Sequence | soluble fraction (log2)
1 | HMSSSLDQLTVREREILAQVSRGLSNKAIARELGISHDTVKLHVRHILSKLGFSSRVEAAVFAIEHRIG | -0.481
2 | HMSSSMDAIAEIIRSIPRGDHLTAPEVYELAKQRGLKLSLSTVYRTLNKLKVVGDVITVSGDRGLRYESV | 0.215
3 | HMSSTPEPPQAVLDLVNLREQARAGKDWTQSDAFRQQIAALGWTVKDTKDGPVVSLSPTTTE | 0.105
4 | HMSSTSTMTVAEATIGRKVKHDKFGEGTIITVADVNGDKKLTIAFNQQGVKMLMLSMAKLEL | -1.05
5 | HMSSVEVWINGKSSGLTSDNRAQILQQLPAESIERIEVIDNPSAKFSAEGSAGIINIVLKKD | -0.177
6 | HMSSVRDNGDLELVPGDRIRHDDYGEGRVTAVTGVGSKRIAHAVFDSVGERKLLIKLSPIEKI | 0.235
7 | HMSSWMTKDGKIKPISKWAGVPMTSQQQADYAAGKVVELTNIPDKQGQLNTVYLKFNPEKQRPTTSLNDPR | 0.22
8 | HMSSYETVTLNGQRYFKYKVKSGEGLYAISRMFSTPIAEIIRHNPSSNAGLKNGQELLIPVN | -0.0689
9 | HMSSYMQMQLERLESLLQKNDLTDSDKYDIRQLVEDLDKVPESVSPNLVGAYMTIKNRYASVLKTVL | -0.835
10 | HMSTANISIEQAKEIALNHANLTSNQVIFSRTELDYDNGIQKYEVEFYYNNREYSYEINANTGDILGYEQ | -0.417
11 | HMSTANIVVPDVKGKTFEEAKKAIEAEGLTAKAEGDESGVVQKTSPSYGVSVESGSEVTLTLVKSDD | 0.0493
12 | HMSTDNINYKNILIASLLIHAAKIDENYTENEKNIIKKALIELDEIDSKKADEIMILAEKKE | -0.271
13 | HMSTGYEMVREVANQGSFSKAANSLGVSGPAVSKQVKSLEERLGLVLFHRTTRAVSLTQAGRQLVDVLN | -0.036
14 | HMSTIKEKIIQYLDFKGISKYDFYQKTGVSNGVLSQKSGMSEDNIMRFLSYYDDINTDWLFYGKGEMIKT | -1.37
15 | HMSTKLLEVNIFDDSKWVNKTIMDSDIPEDILIVMIKRGDEVIVPKGSTIINKGDILVLSANNFDNLLN | -1.97
16 | HMSTMTEQEAFGLWERINDFIARTGNEPNRNSNDAHEVRMAEALNFIRIKVAEQRNSQSNSEAQNN | -1.39
17 | HMSTNDIFISGDKLVLKNTTGQMDVFDMAGRKVLSSTNNVSEMNVSSLPKGVYVVSASIGGSKMKAKVYK | 0.0276
18 | HMSTQGRRIEILRHLTQTKKKADVNFVELGRTFGTSDTTIRKDLDWLIKNEYWENHGEWKPTQAGLNMI | -0.00179
19 | HMSTRKAFVNGDGVRLRSGPGTNHSIRASLTKGQTVFVTGTKDGWASVSVQGGASGWVSADLLKYE | 0.237
20 | HMSTRYVRTPAGQAEIQARVFKLSRPVRNLLLVINDSRSIDDWLVQVHGITADDVAMLRAEGLIAEVS | -0.214
21 | HMSTSEQVYTTDKVNVRREADTSSEKLGSLEKGTAISRTGTEGEWSVVNYGGVTGYIKTEFLTTEQPQ | 0.224
22 | HMSTSFQVQVSVLDLRIRKEPTVKGQEVGKISKGIHTITETRSADGYTWGKLESGQGWIALEFTTKLD | 0.0132
23 | HMSTSLIEFTIDRNNSIANKMIMDANIPEDILVVMIKRNGDVFVPNGSTKILPGDILVLSGNKLKY | -0.785
24 | HMSTTDGIERFLASGAVKGIGRTMAARIVEHFGSRTLTVMESEPERLTEVAGIGRKKAESIAASYAELS | -0.137
25 | HMSTTYAPYLLGETEQEAIRMARNAGLDPQVVRQSDKSEAGTVILQSHDFGFAMKRGAVILITVSSGPLQ | -0.0322

Row | Sequence | soluble fraction (log2)
26 | HMSTVTEVHYIAFKNGRIVDIKAALTGSAVTATSIKEQPKIENYNYTTSEVRDGILYHTYAPVA | 0.195
27 | HMSVADNALSRQAIESRIALFIQNEDPNHPRSDADIQKELAQAGVVISRRAITKYRNHLHIPSASLRRR | -0.12
28 | HMSVAPISYSQFESYLEQGKVASVAVGQDTIAGRFTAPVDGKSQFVTTIVNPQILDRIDKSGVEITGV | -0.175
29 | HMSVAVKAPLQGTVMKVNVKPGDTVTKGAPVAVIEALKMENDVPAPQDGVVASVDVKSGDSVKTDQVLLTL | -0.00426
30 | HMSVDAMDEANERKMAKTFNMIVLGGLLKIRPIVSIESVIKALRKTLPERHHHLIPMNEEAIHIGMDII | -0.288
31 | HMSVDDEQLLKIIDDIFQQNPQAVTDAKTDSNAIHFLIGQVMKETKGHADHAISKEIIEKKLS | -0.726
32 | HMSVDEVEALYLKIAEDRLEGKLPDKVSESDLMRRYGLTKAQLGAILQRIVHEGWIERTPGHGWRFLPIL | -0.368
33 | HMSVFMIIVLKQHAPQEFVDMLMSSIKAKGVQIDVSKGARKTILGLVGNTSVIDREQIAGYEYVDKVIRV | -0.289
34 | HMSVFTDIYHQADHETKLMLIHEIKIVGDEKEFRLLKSIIDSTSNDLSKEANDALNAIKIRLALSK | -1.25
35 | HMSVFTPLTRSELETFLAPYELGRLLDFQGIAAGSENTNYFISLEKGEYVLTLVERGPVAEMPFFIELLD | -1.49
36 | HMSVGDLLENLIRETRAQFSAPPESLGVAEKRRFVALLSQKGGFLLKGAVSRAASVLGVSEQTVYRYLKDS | 0.0671
37 | HMSVGDLPPEAREIWKLLDGRELSLDLLAEETGRETGALLSTLMMLEMKLLVEHGSDMVYRRIPRR | -1.62
38 | HMSVHSAELKKLKAHLLGIIGRELETQPSTENREEMVRQILHQSYESLRLNLPMQLKEELFNEILAEVL | -0.689
39 | HMSVLEHVSGNVRRLRLQAGLSQEALARAASVSRRMLVGIESGDVNVSLSTLDRIAAALGVLFPDLVQAP | -0.392
40 | HMSVLPAREQVAAILRQAILLRKFKEGQDLTLKDAAELVGSSITPVREAFQILENEGLIELRPNKGAVVL | -0.616
41 | HMSVPEDLYFRELEVEGNKVRISGIASTNNRVSALMRNFDQSEWFRDPSLIKVESKSPGVNEFEIVMTRI | -0.761
42 | HMSVPNVVGRDQVEASSLLESAGFKVSVKQSYSDSVEQGKVISQSPSGSTTVSPGSTVTITVSQ | -0.155
43 | HMSVPRPSAVEVTSLVTGVRDLLPHLGEGYVERVLVEFGFKVDETINALLEGNLPKHLQDLDPSLTKEI | -1.25
44 | HMSVPVDEVLAALTQKLTDLRTQAMAAKDFSAVDALKAALTEAGVEVRMSKTGVELIAGPRVDAKKLGTL | -0.268
45 | HMSVRPMVEILRVVGSPSPVWVTWARNRAAWLYETGIRPQQRLRMADGTEVLIRLVGEFAHILVVGG | 0.0642
46 | HMSVSATQMDAFVRQLRARLSSADGLDDAARLVRQDLEPFLGRFSDETERDFAAAIEQVRGSIRPVEI | -1.73
47 | HMSVSEAELAEKYHADDLEALKSGKLHEFQENLIDRNGKKYTVQTMKDILTLSDGTRLLLGIGLD | -0.0916
48 | HMSVTDDQLRVFTNKSGTKIKAKIVEVSDDKVKLIRDDNKKFIVPINSLSEEDQDYLRDWVSNEAVEP | -0.0786
49 | HMSVTIDAGGKVYLQESEIADDQLVPRLVAISNNGYDKPIYLRADKTVGYGRVAEVMSLLNAAGFTKLVLV | -0.244
50 | HMSVTRELMLVKVKVTPEQRAGVSAIVDIFRANIIDVGKESMIIELTGNKSKLEAFIDLLDGYEILELART | -0.865

Row | Sequence | soluble fraction (log2)
51 | HMSVTVPDVKRMQAEDAKALLSRYRLRSEVIDSVYVDNIPRGAVVEQIPRENSSVKENRIVFLTINSN | -0.546
52 | HMSVTYRYSYVYNGNTYSDGWSVRRAIENNENKRFGPEPSDLDHEAQKQARVTFWAEHGVEYKEQEVV | -0.423
53 | HMSVYIGVDQAKSIAAEHAGLSNSAVTFSKAKLENDDGMTVYEVEFFYQGTEYDYKIDASTGSILEYDLDR | -0.0157
54 | HMSWEDSLLKQAREIIDMYPQKRSAVGPLLHLAQSKDGYISDDSISVISKLVGITEVQLKSVSTFYSMYK | -1.23
55 | HMSWEELLEHLEKAAERGEEVRIAGVTLHDEEDFKRALRWLKEWL | -1.47
56 | HMSYIGEEKAKSIAVSNVKGAGTNNVVKVEFDYDDGRAVYEVKVVYNAMEYEFEIDASNGKILSRDAESIY | -0.027
57 | HMSYKFDSLAIILNKLDGKETVNVSSLSDELEVSARTVHRYIGTLQVAGFPIEYDKTKNSYIFSEGYTL | -1.05
58 | HMSYQFKIKNNAAVEVTVSEKNNLLGSTYGDKATVAAGMEKNVTFYTDKPDVVVDTNGNFTITVHDKEIII | -0.221
59 | HMSYSYIYNYALKVKMDISSTGGKKPYAYYYYDHSYKLAEEILSLSEETESIELQNKYDELKDFYENP | -1.04
60 | HMSYTWHDMYLLAQEYQKEHGNLIIPRNYKGKNGLNLGYWLYKEKLKYRQGKLAPEKIIALEHIGIVWT | 0.22
61 | HMSYYKEMIRLADSIADKAHEGQTDRNGWPYISHPRRVALGARKLVSEMASSTSPDTSLEELKAEVQIVAL | 0.00833
62 | HMTAAPEVRVEGLFKGAAVLKIDGQQVMLKKGRSHSSGVTLVDANAHRAIVEIDGQRHELALHMA | 0.0925
63 | HMTADIRFLNSRKFYIYKVEKGETLFSISQKFNIPQEEIIQFNKDINQQGLKAKTKLWVPAYSWL | -0.43
64 | HMTAGTGIAYSEFRSKVQEGQVKDVAIAPDRITGTLSSGQKFSTVPVNDPGLPKMLDDFNVKYSGQA | 0.22
65 | HMTAIWKTITATLTHDIATGKYAPGDRLPTEAQLAARFGVNRHTVRRAISDMNESGLTYSRRGAGVFVAQ | ≥ 0.43
66 | HMTALAVGDRVKMDKSATIYGTMRKFAAWVYATKLYVRGIDGNRVVVSTLKSGAITGAVDKKHLTK | -0.0515
67 | HMTAMDTQQKKLIIMYHDIHRLRNVEHFTIQRIADHLLLNFRTVKKFLEMTQEEFDKFSENRW | -0.0481
68 | HMTANPSTEEIMARVEAIPLPIKRLPPGQIVQAQTVAATVLRSNPGLDLAKAWKLAYATVTGQE | -0.00256
69 | HMTANTQVENIRLELQRYMDEHGISQVTVARGIGKTHPVISQFLNNKYPGDVEEVARAIESWLTKQHEKAA | 0.381
70 | HMTAPELGIRQDGNTLVIFWPSSVTGYVLKSADAVDTPPASWTSVTHTTVGDEHRAEITPTGNSRFFRLV | -0.492
71 | HMTAPQAQDYARVPDVLGLDMRESAQALRLDGFEMNAQGDGLAARQSPIGGSYAPEGTQVLVTFEM | -0.0592
72 | HMTAQLAAQERTHALDMFMGGYKFSSKPAENGVRAEFEKKNFTLEDGKFLGGDEFMKSLMENDDYKGAFV | -0.509
73 | HMTASKSTVSTPEKVVYHIVFPKETKYSIAKKYGITIEELEKRNPEIIPSLSVGQKLVIKGTAPK | 0.173
74 | HMTATDRQLQLIAYTAARLMAEQGIADFNAAKRKAIQTLGLPNNAKLPGNADVEAQLRAYQRIF | 0.0539
75 | HMTATKDLPFSTFITEVEKGNITSVDIKGNQIEGTFSNGAKFKTYSPNYPNLVERLADKGVAISAGPS | 0.141
